# In patent US20210171611A1 (SEOUL NATIONAL UNIVERSITY R AND DB FOUNDATION, published 2021):
# B1: Ab10 scFv (scFv)
# scFv: ELVMTQSPSSLSASVGDTVTITCRASQSIYTYLNWYHQTPGKAPKLLISAASSLQSGVPSRFSGSGSGTDFTLTISSLQPEDFATYYCQQYADVPVTFGGGTKLEIKGGSSRSSSSGGGGSGGGGEVQLVESGGGVVQPGRSLRLSCAASGFTFSGYGIHWVRQAPGKGLEWVALISYDGSNKYYADSVKGRFTISRDNSKNTLYLQMNSLRAEDTAVYYCAKDRDYFGSGFFDYWGQGTLVTVSS
# B2: Ab9 scFv (scFv)
# scFv: ELELTQPPSVSGTPGKRVSMSCSGSRSNIGGNVVNWYQQLPGKAPKLFIYNNDQRPSGVPDRVSGSKSGTSVSVAISGLQPEDEADYYCAAWDDILNGVVFGGGTQLTVLGGGSSRSSSSGGGGSGGGGQVQLVQSGAEVKKPGESLKISCKGSGYNFTNYWIGWVRQLPGKGLEWMGIIYPGDSDTRYSPSFQGQVTISADKSISTAYLQWSSLKASDTAMYYCARIRVIGFYDSSPPPLFDYWGQGTLVTVSS
# B3: Ab8 scFv (scFv)
# scFv: ELALTQPPSVSVAPAMTAKITCGGDDIGSTTVQWYQQTSGQAPVLVVYDDSDRPSGIPERFSGANSGNTATLTISRVEAGDEADYYCQVWDGRSDHVVFGGGTKLTVLGGGSSRSSSSGGGGSGGGGQVQLVQSGAEVKKPGESLKISCKGSGYIFTNYWIGWVRQMPGKGLEWMGIIYPGDSDTRYSPSFQGQVTISADRSISTANLQWSSLKASDTALYYCARLKLRGFSGGYGSGRRYFDYWGQGTLVTVSS
# Biological target: T1, recombinant SFTS virus glycoprotein Gn fused to human Ig k-chain constant region (severe fever with thrombocytopenia …, UniProt P01834 1-107)
# T1 construct: also called Gn-Ck
# Test: ELISA on recombinant glycoprotein (Gn-Ck coated, Example 5)
row,Binder,binding result
1,B1,binds
2,B2,binds
3,B3,binds
